This note sets out measurements from patent publication US20200347144A1 (SHANGHAI HYAMAB BIOTECH, published 2020).

As usually defined, the EC50 (read off the curve) is the concentration needed to bring the measured effect to its halfway point.

Test [1] deals with T1, hFc-tagged human 4-1BB extracellular domain protein (4-1BB-hFc) (human, UniProt Q07011 24-186, limits assumed).
T1 construct: also called immunogen A; 4-1BB^ECD-hFc; not shown: human IgG Fc fragment (hFc) of the pCpC vector
The test is described as follows: ELISA, coated human 4-1BB-hFc; Ab 0.08 ug/ml. As to the method:
(§1) The purified immunogen A (4-1BB-hFc), monkey 4-1BB-his, and mouse 4-1BB-his obtained in Example 1 [for the preparation method, see step 1 of Example 1, preparation of immunogen A], of which the extracellular domain of monkey-derived 4-1BB protein (purchased from ACRO biosystems), the extracellular domain of mouse 4-1BB protein (purchased from sino biological) or other immune detection point proteins respectively were diluted with PBS to a final concentration of 1.0 μg/mL, then added with […] per well to 96-well ELISA plate. It was sealed with plastic film and incubated at 4° C. overnight. The next day, the plate was washed twice with the plate-washing solution [PBS containing 0.01% (v/v) Tween20] and blocking solution [PBS containing 0.01% (v/v) Tween 20 and 1% (v/v) BSA] was added and blocked at room temperature for 2 hours. The blocking solution was discarded and 100 μl of the purified 4-1BB antibody obtained in Example 2 was added per well. After incubated at 37° C. for 2 hours, the plate was washed 3 times with a plate-washing solution [PBS containing 0.01% (v/v) Tween20]. A secondary antibody (purchased from Sigma) labeled with HRP (horseradish peroxidase) was added, and after incubated at 37° C. for 2 hours, the plate was washed 3 times with a plate-washing solution [PBS containing 0.01% (v/v) Tween20]. 100 μl of TMB substrate was added per well. After incubated for 30 minutes at room temperature, 100 μl of stop buffer (1.0N HCl) was added per well. The A450 nm values were read using an ELISA plate reader (SpectraMax 384plus, Molecular Device).
(ELISA stands for enzyme-linked immunosorbent assay.)

Test [2] deals with T2, human 4-1BB, full length, on transfected cells (human, UniProt Q07011 24-255).
T2 construct: whole, on cells; also called CHOK1-h4-1BB
T2 sequence (Q07011 24-255): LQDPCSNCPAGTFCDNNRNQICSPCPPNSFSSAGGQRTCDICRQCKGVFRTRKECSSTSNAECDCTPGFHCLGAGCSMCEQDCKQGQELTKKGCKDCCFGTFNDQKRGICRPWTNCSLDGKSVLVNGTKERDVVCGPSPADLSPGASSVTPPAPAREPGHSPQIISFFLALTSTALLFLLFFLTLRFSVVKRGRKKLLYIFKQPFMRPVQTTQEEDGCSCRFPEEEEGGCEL
The test is described as follows: FACS on CHOK1-h4-1BB cells, Alexa 488 secondary antibody, average fluorescence intensity. The text has this: (§2) The pIRES plasmid carrying the full-length gene of monkey-derived […] (the preparation method is the same as the preparation method of the pCpC vector carrying the human-derived IgG Fc fragment (hFc) in “Preparation of immunogen A” of the step (1) in Example 1, in which the database accession number of the amino acid sequence of the extracellular region of monkey 4-1BB protein (Phe19-Thr239) is G7PSE7) was transfected into CHOK1 cell line to obtain CHOK1 stable transfected cell line containing monkey 4-1BB (herein referred to as CHOK1-c4-1BB stable cell line). The CHOK1-h4-1BB stable cell line and the CHOK1-c4-1BB stable cell line were expanded and cultivated to 90% confluence in T-75 cell culture flasks. The medium was exhausted, and washed twice with HBSS buffer (Hanks Balanced Salt Solution, purchased from Invitrogen), and then the cells were treated and collected with enzyme-free cell dissociation solution (Versene solution, purchased from Life Technology). The cells were washed twice with HBSS buffer, and after cell counting, the cells were diluted with HBSS buffer to 2×10⁶ cells per ml, and 1% goat serum blocking solution was added, the percentage being the mass percentage. It was incubated on ice for 30 minutes, and then washed twice with HBSS buffer by centrifugation. The collected cells were suspended in FACS buffer (HBSS containing 1% BSA, the percentage was the mass percentage) to 2×10⁶ cells/mL, and 100 μl per well was added to a 96-well FACS reaction plate. The purified 4-1BB antibody test sample obtained in Example 2 was added, 100 microliters per well and incubated on ice for 2 hours. […] It was washed three times with FACS buffer by centrifugation, and 100 μl of fixative [4% (v/v) paraformaldehyde] per well was added to suspend cells, and washed twice with FACS buffer after 10 minutes by centrifugation. The cells were suspended with 100 microliters of FACS buffer, and the results were detected and analyzed with FACS (FACS Calibur, purchased from BD).

Test [3] concerns the target T1, hFc-tagged human 4-1BB extracellular …. The test is described as follows: ELISA, coated human 4-1BB-hFc; Ab 0.0032 ug/ml. The method, then: as §1
The target is the same in test [4]. The test is described as follows: ELISA, coated human 4-1BB-hFc; Ab 10 ug/ml. As to the method: as §1
For test [5] the target is unchanged. The test is described as follows: ELISA: human 4-1BB-hFc coated at 1.0 µg/mL, antibody titrated, HRP secondary antibody, OD450. As to the method:
as §1

The target of test [6] is T2, human 4-1BB, full length, on …. The test is described as follows: FACS, CHOK1-h4-1BB cells; Ab 10 ug/ml.
Excerpt: as §2
A general note: Flow cytometry measures light scatter and fluorescence of single cells or particles in a stream.

The target of test [7] is T3, monkey 4-1BB on CHOK1 cells (monkey).
T3 construct: whole, on cells; also called CHOK1-c4-1BB
The test is described as follows: FACS, CHOK1-c4-1BB cells; Ab 0.00013 ug/ml.
Excerpt: as §2

The target of test [8] is T2, human 4-1BB, full length, on …. The test is described as follows: FACS, CHOK1-h4-1BB cells; Ab 0.4 ug/ml.
Excerpt: as §2

Test [9] has the same target. The test is described as follows: FACS, CHOK1-h4-1BB cells; Ab 0.016 ug/ml.
Excerpt: as §2

Test [10] addresses T1, hFc-tagged human 4-1BB extracellular …. The test is described as follows: ELISA, coated human 4-1BB-hFc; Ab 0.016 ug/ml. The method, then: as §1
For test [11], the target named is T3, monkey 4-1BB on CHOK1 cells. The test is described as follows: FACS, CHOK1-c4-1BB cells; Ab 0.016 ug/ml.
Excerpt: as §2

Test [12] has the same target. The test is described as follows: FACS, CHOK1-c4-1BB cells; Ab 2 ug/ml.
Excerpt: as §2

B1: 52F4G2 (antibody, V domains shown)
VH: QVQLQESGPGLVKPSETLSLTCAVSGYSISSGYYWGWIRQPPGKGLEWIGSIFHSGSSYYNPSLKSRVTISVDTSKNQFSLKLRSVTAADTAVYYCARESSGWNCFDYWGQGTLVTVSS
VL: DIQMTQSPSTLSASVGDRVTITCRASQTISTWLAWYQQKPGKAPKLLIYKASNLESGVPSRFSGSGSGTEFTLTISSLQPDDFATYYCQQYNSYSITFGQGTRLEIK
Regarding B1, the OD450 nm was 3.08 OD450 nm in test [1], 0.89 OD450 nm in [3], 3.06 OD450 nm in test [4] and 2.51 OD450 nm in test [10]. In addition, the figures for the 50% effective concentration (EC50 (read off the curve)) in test [2] and in [5] were around 0.05 µg/mL and around 0.007 µg/mL, respectively. The average fluorescence intensity in test [6] was found to be 615 MFI; in [7], 3.2 MFI; in test [8], 584 MFI; in test [9], 141 MFI; in [11] it was 41.2 MFI; in test [12] it was 679 MFI.

B2: 23G3B8 (antibody, V domains shown)
VH: QVQLQESGPGLVKPSETLSLTCAVSAYSISSGYYWGWIRQPPGKGLEWIGSIFHSGSNYYNPSLKSRVTISVDPSKNQFSLKLSSVTVADTAVYYCARESSGYNCFDYWGQGTLVTVSS
VL: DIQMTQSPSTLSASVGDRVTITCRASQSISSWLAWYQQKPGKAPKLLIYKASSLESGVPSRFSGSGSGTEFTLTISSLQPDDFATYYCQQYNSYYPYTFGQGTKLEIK
On to B2, for which the OD450 nm in test [1] was 2.53 OD450 nm; in [3], 0.28 OD450 nm; in [4], 2.78 OD450 nm; in test [10], 1.1 OD450 nm. For the same molecule, in test [5], the concentration for a half-maximal effect (EC50 (read off the curve)) is around 0.02 µg/mL. For the same molecule, the average fluorescence intensity stood at 3.4 MFI in test [7]; 541 MFI in test [8]; 126 MFI in [9]; 34.2 MFI in test [11]; 586 MFI in test [12].

B3: 170D7F2 (antibody, V domains shown)
VH: QVQLVQSGAEVKKPGASVKVSCKASGYTFTSYDINWVRQATGQGLEWMGWMNPNSGNTGYAQKFQGRVTMTRNTSISTAYMELSSLRSEDTAVYYCARETGPFDYWGQGTLVTVSS
VL: DIQMTQSPSSLSASVGDRVTITCRASQRINNYLNWYQQKPGKAPKLLIYGASSLQSGVPSRFSGSGSGTDFTLTISSLQPEDFATYYCQQSYSTPFTFGPGTKVDIK
As for B3, the OD450 nm in [1] came to 3.24 OD450 nm; in test [3] it was 0.48 OD450 nm; in test [4], 3.44 OD450 nm; in test [10], 1.64 OD450 nm. The “EC50 (read off the curve)” value is around 0.2 µg/mL in test [2] and around 0.02 µg/mL in test [5]. Moreover, the average fluorescence intensity in [6] came out at 735 MFI; in test [7], 2.6 MFI; in [8], 540 MFI; in test [9], 48.8 MFI; in test [11] it was 25.9 MFI; in [12] it was 621 MFI.

B4: 182A5B3 (antibody, V domains shown)
VH: QVQLVQSGAEVKKPGASVKVSCKASGYTFTSYDINWVRQATGQGLEWMGWMNPNSGNTGYVQKFQGRVTMTRNTSISTAYMELSSLRSEDTAVYYCARETGPFDYWGQGTLVTVSS
VL: not shown
B4: the OD450 nm in test [1] was determined as 3.29 OD450 nm; in [3], 0.38 OD450 nm; in [4], 3.5 OD450 nm; in test [10], 1.48 OD450 nm. Moreover, the “EC50 (read off the curve)” value is around 0.2 µg/mL in [2] and around 0.02 µg/mL in test [5]. The average fluorescence intensity in [6] was 769 MFI; in [7] it was 2.7 MFI; in [8], 530 MFI; in [9], 52.7 MFI; in test [11], 33.2 MFI; in [12], 712 MFI.

B5: 118F3A2 (antibody, V domains shown)
VH: QVQLQQWGAGLLKPSETLSLTCGVYGGSFSTNYWSWIRQSPGKGLEWIGEINHSGNTEYNPSLKSRLTISIDTSKNQFSLKLTSVTAADTAVYYCARMGYHSPSFDFWGQGVLVTVSS
VL: KIVMTQSPATLSVSPGERATLPCRVSQGIGSNLAWYQQKPGQAPRLLIYGASTRATGVPARFSGSGSGSEFTLTISSLQSEDLALYYCQQYNNWPLTFGGGTKVEIK
For the molecule B5, the OD450 nm in [1] stood at 2.26 OD450 nm; in [3], 0.54 OD450 nm; in [4], 2.73 OD450 nm; in [10], 0.99 OD450 nm. Besides, the figures for the “EC50 (read off the curve)” value in [2] and in [5] were around 0.05 µg/mL and around 0.03 µg/mL, respectively. Further, the average fluorescence intensity in [6] turned out to be 527 MFI; in test [7], 2.9 MFI; in test [8], 508 MFI; in test [9] it was 125 MFI; in test [11], 41.2 MFI; in test [12], 688 MFI.

B6: 289B6G6 (antibody, V domains shown)
VH: QVQLQESGPGLVRPSETLSLTCAVSGYSISSGYYWGWIRQPPGKGLEWIGSIFHSGNTYYNPSLKSRVIVSGDTSKNQFSLKLSSVTAADTAVYYCTRESSGFNVFDIWGQGTMVTVSS
VL: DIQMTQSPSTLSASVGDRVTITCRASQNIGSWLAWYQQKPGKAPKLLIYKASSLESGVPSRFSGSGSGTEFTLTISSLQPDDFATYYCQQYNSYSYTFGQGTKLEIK
For B6, the OD450 nm in test [1] was found to be 2.73 OD450 nm; in [3] it was 0.34 OD450 nm; in [4], 2.8 OD450 nm; in [10], 1.47 OD450 nm. The “EC50 (read off the curve)” value in test [5] was around 0.02 µg/mL. Also, the average fluorescence intensity was 2280 MFI in [6]; 3 MFI in [7]; 1520 MFI in test [8]; 101 MFI in [9]; 47.2 MFI in [11]; 597 MFI in test [12].
